The values that follow come from the supplement of paper PMC12042874.

± gives the uncertainty stated by the source.

A short description of this data set: amyloid nucleation score (Sup35N fusion, yeast selection) (log enrichment); library NNK2; higher = more nucleation; inactive = no reads after selection. In a few lines: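 For the nucleation score, DiMSum gave the log enrichment of output over input reads, centred on the mode score of non-aggregating sequences. Psi-negative yeast expressing Sup35N fused to peptides of 20 random codons were induced with 100 μM copper sulfate for 24 hours and grown 7 days at 30°C on medium lacking adenine and uracil. Input and output plasmid inserts were Illumina-sequenced, and sequences with under 100 input reads were excluded.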

Turning to VIVCCGSCLHRE, the amyloid nucleation score was 9.721 ± 0.05.

Consider CASMVIMG, for which the amyloid nucleation score result is “inactive”.

In turn, IYFWDTLTFLLSCLHAAGEN displayed an amyloid nucleation score of -1.87 ± 0.64.

As to VFWITAQMYY, the amyloid nucleation score came out at 2.18 ± 0.076.

In turn, STLNSYS yielded an amyloid nucleation score of -0.42 ± 0.61.

As to WRNCYVYRTVLR, the amyloid nucleation score amounted to 2.36 ± 0.07.

FGSIFNSYVNEWRSLLCNID yielded an amyloid nucleation score of -1.67 ± 0.39.

In turn, YLPFMWCCMIWWAGGVCRL yielded an amyloid nucleation score of -0.143 ± 0.76.

The substance TVVVWA yielded an amyloid nucleation score of 0.19 ± 0.31.

In the case of PCLKGVITLLLKGPGPHRVN, the amyloid nucleation score was determined as 0.091 ± 0.42.

Take GPIYLWFSFKSRCQSSCHDV: the amyloid nucleation score was -0.866 ± 0.48.

Turning to VLKPYM, the amyloid nucleation score was -1.3 ± 0.54.

The substance YMSGGVRKGPIAKALNFVRS showed an amyloid nucleation score of -0.854 ± 0.56.

DGIRVLCLTALPFMWVH: the amyloid nucleation score entry is “inactive”.

In turn, AFYCTVC came in with an amyloid nucleation score of 7.346 ± 0.043.

Turning to EGMLGIHRAGFLDGRGKLGL, the amyloid nucleation score result is “inactive”.

Take TVREKDYIEDFGVIWRKGIY: the amyloid nucleation score was 0.791 ± 0.81.

SFAIIS: the amyloid nucleation score stood at 0.077 ± 0.65.

VLEFFLKSSF showed an amyloid nucleation score of 3.1 ± 0.14.

Substance CKRSTH gave an amyloid nucleation score of -0.461 ± 0.49.

For TFPNLHFCFTLLLYKGCVCG, the amyloid nucleation score was -0.101 ± 1.1.

Consider VDLSLTHYCARSNYLGGPSF, for which the amyloid nucleation score is 3.17 ± 0.076.

Turning to VYAMVGVSLACGCVSWKGHV, the amyloid nucleation score was determined as 4.75 ± 0.086.

SWNMIQSTIFLPCNLGDYTV registered an amyloid nucleation score of 5.678 ± 0.048.

LFKMCTSVFRVCSAGMMELG: the amyloid nucleation score is 0.35 ± 0.27.

Consider CLPCCGAFNKCANRYQVSEM, for which the amyloid nucleation score is -0.249 ± 0.39.

In the case of IRYWSMLLEVG, the amyloid nucleation score was found to be 5.683 ± 0.046.

Consider DTWEELFKNRDNPRRKCVGL, for which the amyloid nucleation score was determined as 1.32 ± 0.41.

Substance FEIGGHIDCETGVCCGVAVM gave an amyloid nucleation score of 4.56 ± 0.052.

In turn, GANMLETV yielded an amyloid nucleation score of -0.085 ± 0.47.

DMRTIGEHCW gave an amyloid nucleation score of 1.02 ± 0.52.

As for VIYLIGSHYTLVSNRLYEIG, the amyloid nucleation score was determined as 8.186 ± 0.08.

Regarding YWVFI, the amyloid nucleation score is -0.115 ± 0.56.

The substance LASTVNIEMVSVHRDWCVWM displayed an amyloid nucleation score of 5.326 ± 0.029.

As to WFNFVPYHADYGNFL, the amyloid nucleation score was 0.053 ± 1.1.

VDNNVGSWPLWP displayed an amyloid nucleation score of -0.08 ± 1.

Take TSLKYSVENTVASPVDRTWL: the amyloid nucleation score is -0.055 ± 1.1.

In the case of KERRSSVLVKNRVCSNGYF, the amyloid nucleation score result is “inactive”.

In turn, TLKEGRWEVPCLIWIWRVWS came in with an amyloid nucleation score of 1.6 ± 0.36.

Turning to AFCKALCIVRRYSPPPLIVA, the amyloid nucleation score entry is “inactive”.

For RIVCSNSWR, the amyloid nucleation score is -0.113 ± 1.1.

In the case of RSHTTGLPS, the amyloid nucleation score came out at 0.718 ± 0.15.

For the substance FFVTAPIGMFSLD, the amyloid nucleation score is -2.17 ± 0.44.

As for WDTHLYQDMGCFAHLFIRYF, the amyloid nucleation score result is “inactive”.

Substance GKDCSRVNKHWCQRGRQGMV displayed an amyloid nucleation score of 0.922 ± 0.58.

Substance GLSNLR displayed an amyloid nucleation score of -0.114 ± 1.

For the substance MGCLTVVRNLEFNRVCGRGD, the amyloid nucleation score is -0.669 ± 0.49.

Regarding HCTDGFLMAYVSFSRGMIIM, the amyloid nucleation score result was “inactive”.

For QFLEFHIP, the amyloid nucleation score is -0.223 ± 0.49.

As for FLKGPTEECQLRPSLRTNLQ, the amyloid nucleation score amounted to 0.069 ± 0.23.

MLNARELGETNKMLIVWVYL showed an amyloid nucleation score of 0.441 ± 0.22.

In turn, AGMMFKR displayed an amyloid nucleation score of 1.71 ± 0.37.

With CVNSLALGRVSIVGISSGWW, the amyloid nucleation score came out at 0.284 ± 0.51.

SDGVNIMK: the amyloid nucleation score stood at 2.83 ± 0.18.

The substance VFLVHPTFSFKNRVCLNFVW had an amyloid nucleation score of -0.081 ± 1.1.

In the case of HTKMYRAAARMVGAGNDFDM, the amyloid nucleation score was found to be 0.146 ± 0.46.

In turn, YYQRLRVHLYADIELYATLC registered an amyloid nucleation score of 0.266 ± 0.6.

Regarding ANPQSKLLNVSFIGTVQGWV, the amyloid nucleation score is 3.04 ± 0.12.

SRLNNLRYLYYLTGFRSLMT: the amyloid nucleation score entry was “inactive”.

The substance NHLLMGGGHKDAVGQSVFGI gave an amyloid nucleation score of 0.074 ± 0.74.

In the case of RCGKCGLYS, the amyloid nucleation score stood at 0.067 ± 0.5.

Consider IAHRVITMP, for which the amyloid nucleation score is -0.277 ± 1.1.

On to QWSAILFSMRWFVKKSEFSC, for which the amyloid nucleation score came out at 3.48 ± 0.052.

Consider ERDSSALRMAYSICHGNSVV, for which the amyloid nucleation score was found to be 0.232 ± 0.56.

For the substance RLYKSARVASHVDLGCTFRC, the amyloid nucleation score came to 1.35 ± 0.18.

Substance WRFWLPAKWISRGSFIVYWI showed an amyloid nucleation score of -0.717 ± 0.32.

As for ILLHIDNGRRSFSNIKATS, the amyloid nucleation score was -0.886 ± 1.1.

Substance SSSFHKYRRALWKRKRTWVV displayed an amyloid nucleation score of 5.63 ± 0.081.

RAVTRVKHICLSATRSCDVE came in with an amyloid nucleation score of 0.523 ± 0.21.

FCILYSVFNGRLRYAFGDAS had an amyloid nucleation score of -2.06 ± 0.62.

VGGVIYAYGFVFF yielded an amyloid nucleation score of 7.381 ± 0.029.

TYYKRN yielded an amyloid nucleation score of -0.4 ± 0.34.

The substance RYYLNL gave an amyloid nucleation score of 3.83 ± 0.091.

The substance HGVMKISTCYFGGKESYYVE had an amyloid nucleation score of -0.206 ± 0.76.

As to MSLTIWGICRCKQ, the amyloid nucleation score is -0.097 ± 0.76.

Take FLRENLCTDVGLTHVCCTYT: the amyloid nucleation score result was “inactive”.

Take RVIQLQKVTHWW: the amyloid nucleation score came to 2.72 ± 0.078.

In turn, EHTFLFA came in with an amyloid nucleation score of -0.297 ± 1.1.

FWIDTYGGTNFKGCICIITG: the amyloid nucleation score came to 4.39 ± 0.11.

For the substance SYMCKAHKRLIIGGKWINGW, the amyloid nucleation score was -0.031 ± 0.53.

Turning to DDWEVRN, the amyloid nucleation score came out at 0.231 ± 0.31.

NILLIPMRGFSRFRSVMVIP registered an amyloid nucleation score of -0.202 ± 1.1.

Turning to LCRVALKEDS, the amyloid nucleation score came to 0.436 ± 0.8.

In turn, IAVNMCSFFVSDLHPMRWGY yielded an amyloid nucleation score of 7.495 ± 0.035.

The substance SASVHYHYDMK had an amyloid nucleation score of 0.268 ± 0.62.

TFATIRVAFMVMCRFDG came in with an amyloid nucleation score of 3.23 ± 0.084.

The substance WNKWSGLVLYTLGKLSY registered an amyloid nucleation score of -0.648 ± 0.39.

As for ANGSKGLVLTLNGDSKCVEC, the amyloid nucleation score is 0.188 ± 0.25.

As to WLYNMTRLHIPFYARNWLNS, the amyloid nucleation score worked out at 0.352 ± 0.37.

Substance QEFLWWGREQLGVCCLGVGR yielded an amyloid nucleation score of 2.88 ± 0.14.

YCKRLKQAMPHY registered an amyloid nucleation score of -0.337 ± 0.63.

In the case of LLRLRECQV, the amyloid nucleation score was determined as 2.73 ± 0.14.

YRSSLRHFSVYSYNSFSELL came in with an amyloid nucleation score of 0.626 ± 0.65.

As to FRLILWPIDCAINTNRRCNR, the amyloid nucleation score was determined as 4.38 ± 0.051.

SISSLLLRLRGTV: the amyloid nucleation score was -0.305 ± 0.79.

Take FSWSYDVDIT: the amyloid nucleation score result was “inactive”.

As to RNTTKWKMMTLTFNCTRRKK, the amyloid nucleation score is -0.766 ± 1.

The substance LSHSDVKRALKWNCFPIGVC returned an amyloid nucleation score of -0.158 ± 0.28.

In the case of SVRMYWAGLLSENKRYNSQS, the amyloid nucleation score was determined as 3.89 ± 0.12.

The substance DCRVGSLSAGRQLSARAAGK had an amyloid nucleation score of 0.633 ± 0.41.

Turning to SISGHSWTKCVRVHYALIYG, the amyloid nucleation score was 1.07 ± 0.38.

Consider ATKVISALSIRMRRK, for which the amyloid nucleation score stood at 1.32 ± 0.3.

Consider TLLLTWQY, for which the amyloid nucleation score was found to be 4.46 ± 0.067.

Substance PWFMFPCRHRYRQYLWCFCA came in with an amyloid nucleation score of 2.52 ± 0.068.

Turning to IDYRPDCQRPVLVYLNKGCM, the amyloid nucleation score was -0.389 ± 0.24.

Consider GSVTTCSAWYKRRNLDICHR, for which the amyloid nucleation score was -0.277 ± 0.22.

Substance ECTYNKSWHQTWVTTRHGSS came in with an amyloid nucleation score of 0.613 ± 0.23.

Substance RWCSSYRYIHSGGRNASGSF registered an amyloid nucleation score of -0.108 ± 0.8.

Substance HLPGWSGWRSDFDIHTSGVG showed an amyloid nucleation score of 1.92 ± 0.25.

In turn, YMSARVMFGGEPCCCGSGGE returned an amyloid nucleation score of 1.74 ± 0.27.

With WFDYGR, the amyloid nucleation score result was “inactive”.

MPGKPWTGVVLKPRSESPAW came in with an amyloid nucleation score of 0.057 ± 0.48.

Turning to NLAFSSSIRPLITLEGELLP, the amyloid nucleation score is -0.176 ± 1.1.

Take LRLIDNYMGSSRMMS: the amyloid nucleation score entry was “inactive”.

Regarding IPTTQLAHCGQVACPARVVP, the amyloid nucleation score came out at 1.23 ± 0.28.

On to HLFYCRSIGDILRSFGETPT, for which the amyloid nucleation score entry was “inactive”.

Consider PSNTIYHFIAELNEYETPRF, for which the amyloid nucleation score amounted to 0.426 ± 0.15.

In turn, VDTRS had an amyloid nucleation score of 0.382 ± 0.8.

For YNSSCCSERSYLLSVFRISR, the amyloid nucleation score came out at 0.178 ± 0.17.

As to HSSAFMRMLMFRELRRNSDP, the amyloid nucleation score result was “inactive”.

LTIYRSHDVRM yielded an amyloid nucleation score of 3.88 ± 0.043.

SWRAYSSF displayed an amyloid nucleation score of 2.73 ± 0.081.

YGEELE: the amyloid nucleation score result was “inactive”.

RCLPSIFDPMRVTRVLPELY yielded an amyloid nucleation score of -0.017 ± 1.

In turn, LSHKSVRAKENPIQSSQCES displayed an amyloid nucleation score of 1.2 ± 0.33.

Substance VSAKVFSGGKESVMMCWPPL registered an amyloid nucleation score of 1.58 ± 0.41.

With HVADTGLIMQYVVSGLRVAG, the amyloid nucleation score turned out to be 0.602 ± 0.22.

Substance ILYGSGVFSSG returned an amyloid nucleation score of -1.17 ± 1.1.

The substance LALTWKAWTTHSPRKLAAVF yielded an amyloid nucleation score of 0.353 ± 0.31.

For GVMYSLFRNSSWGGHIMSGK, the amyloid nucleation score was 0.818 ± 0.67.

Consider SLSLQGLSFMPFCGRSGSVV, for which the amyloid nucleation score result was “inactive”.

RVSCNRVRVYCWLVWRLIPN: the amyloid nucleation score entry is “inactive”.

The substance YQVFSQLEMRTYCKGKDFTL registered an amyloid nucleation score of 4.724 ± 0.038.

Substance IYWTNLSRLKTGANRLRDKK came in with an amyloid nucleation score of 0.177 ± 0.8.

In turn, MLANTYDSEPSRHRCVGKPI registered an amyloid nucleation score of 0.754 ± 0.44.

Take HVAFKLKVIVRIVSLTSGER: the amyloid nucleation score was determined as 2.94 ± 0.075.

With LRDKCAPCKCSRGSPLTSIC, the amyloid nucleation score was -0.489 ± 0.63.

Substance CLSNL showed an amyloid nucleation score of -0.864 ± 0.48.

Consider RGYDLVGSIIFSMQKRLRKK, for which the amyloid nucleation score was -1.24 ± 1.1.

IKGGRQAYNPTLGEVRGCAR: the amyloid nucleation score amounted to 2.93 ± 0.13.
